Source: patent US20170355766A1 (Xencor, published 2017)
Read-outs that look alike come from different tables or passages of the source.

T1: human FcγRIIb receptor protein (R&D Systems) (human, UniProt P31994 46-217)
T1 construct: Analyte injected over antibodies captured on a protein A/G chip (Biacore); also called CD32b
T1 sequence (looked up): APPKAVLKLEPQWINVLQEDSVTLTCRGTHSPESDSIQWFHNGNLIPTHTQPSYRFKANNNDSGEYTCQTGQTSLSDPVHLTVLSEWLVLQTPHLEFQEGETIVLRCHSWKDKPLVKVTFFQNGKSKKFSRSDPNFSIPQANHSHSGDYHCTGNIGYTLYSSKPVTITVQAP

T2: human H131 FcγRIIa receptor protein (6xHis and GST tags) (human, UniProt P12318 34-217, limits assumed)
T2 construct: also called HIIa
T2 sequence (looked up): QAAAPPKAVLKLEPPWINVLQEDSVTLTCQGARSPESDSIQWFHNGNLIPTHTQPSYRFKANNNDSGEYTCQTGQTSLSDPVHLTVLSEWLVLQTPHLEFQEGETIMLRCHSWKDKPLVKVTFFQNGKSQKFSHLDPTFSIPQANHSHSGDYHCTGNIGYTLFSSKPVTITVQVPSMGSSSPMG

T3: FcγRIIaR (human, UniProt P12318)
T3 construct: recombinant receptor protein with 6xHis and GST tags; also called R131 FcγRIIa
T3 sequence (receptor, looked up): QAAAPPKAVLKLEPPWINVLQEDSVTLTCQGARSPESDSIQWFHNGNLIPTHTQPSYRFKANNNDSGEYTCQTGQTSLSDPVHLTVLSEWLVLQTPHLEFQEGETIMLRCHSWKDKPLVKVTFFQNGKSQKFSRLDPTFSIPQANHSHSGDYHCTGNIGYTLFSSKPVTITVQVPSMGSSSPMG

T4: human FcγRIIb on the cell surface (HEK293T cells transfected with human FcγRIIb cDNA; primary human B cells) (human, UniProt P31994 43-310)
T4 chain: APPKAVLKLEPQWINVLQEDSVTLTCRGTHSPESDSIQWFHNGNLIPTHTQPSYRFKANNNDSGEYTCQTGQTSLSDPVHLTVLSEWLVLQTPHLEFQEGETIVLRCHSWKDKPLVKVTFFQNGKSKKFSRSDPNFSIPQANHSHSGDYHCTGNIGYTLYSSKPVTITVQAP


Key:
[1] = target: T1, human FcγRIIb receptor protein (R&D …); assay: Biacore SPR ('according to the data herein')
Procedure: (§1) Variants were screened for receptor affinity using Biacore™ technology, also referred to as Biacore herein, a surface plasmon resonance (SPR) based technology for studying biomolecular interactions in real time. SPR measurements were performed using a Biacore 3000 instrument (Biacore, Piscataway, N.J.). A protein A/G (Pierce Biotechnology) CM5 biosensor chip (Biacore) was generated using a standard primary amine coupling protocol. All measurements were performed using HBS-EP buffer (10 mM HEPES pH 7.4, 0.15 M NaCl, 3 mM EDTA, 0.005% vol/vol surfactant P20, Biacore). Antibodies at 20 nM or 50 nM in HBS-EP buffer were immobilized on the protein A/G surface and FcγRs were injected. After each cycle, the surface was regenerated by injecting glycine buffer (10 mM, pH 1.5). Data were processed by zeroing time and response before the injection of FcγR and by subtracting appropriate nonspecific signals (response of reference channel and injection of running buffer). Kinetic analyses were performed by global fitting of binding data with a 1:1 Langmuir binding model using BIAevaluation software (Biacore).

[2] = target: T5, human V158 FcγRIIIa receptor protein (6xHis and GST tags) (human, UniProt P08637 17-208, limits assumed); assay: SPR (Biacore)
T5 construct: also called VIIIa
T5 sequence (P08637 17-208 F176V limits assumed): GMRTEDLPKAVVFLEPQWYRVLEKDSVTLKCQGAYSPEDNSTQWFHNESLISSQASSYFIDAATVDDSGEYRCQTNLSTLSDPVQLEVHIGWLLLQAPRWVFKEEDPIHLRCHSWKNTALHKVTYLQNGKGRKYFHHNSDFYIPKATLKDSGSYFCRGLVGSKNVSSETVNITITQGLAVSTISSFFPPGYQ

[3] = target: T2, human H131 FcγRIIa receptor protein …; assay: SPR (Biacore)
[4] = target: T1, human FcγRIIb receptor protein (R&D …); assay: SPR (Biacore)
[5] = target: T3, FcγRIIaR; assay: SPR (Biacore)
[6] = target: T6, human FcγRI receptor protein (R&D Systems) (human, UniProt P12314 16-288); assay: SPR (Biacore)
T6 construct: also called CD64
T6 sequence (P12314 16-288 limits assumed): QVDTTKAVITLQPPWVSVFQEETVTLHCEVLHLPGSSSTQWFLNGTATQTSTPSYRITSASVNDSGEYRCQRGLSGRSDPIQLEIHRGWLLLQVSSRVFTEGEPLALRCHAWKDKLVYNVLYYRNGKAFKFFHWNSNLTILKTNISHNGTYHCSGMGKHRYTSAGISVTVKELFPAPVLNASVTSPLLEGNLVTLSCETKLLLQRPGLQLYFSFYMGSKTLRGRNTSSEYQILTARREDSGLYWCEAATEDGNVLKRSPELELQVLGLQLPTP

[7] = target: T4, human FcγRIIb on the cell surface …; assay: flow cytometry on HEK293T cells transfected with human FcγRIIb, PE anti-human Fab detection
[8] = target: T1, human FcγRIIb receptor protein (R&D …); assay: Biacore SPR, antibody captured on protein A/G, FcγR injected
Procedure: as §1

[9] = target: T4, human FcγRIIb on the cell surface …; assay: flow cytometry on FcγRIIb-transfected HEK293T cells
[10] = target: T4, human FcγRIIb on the cell surface …; assay: as above

Binder | Kd [1] | Fold FcγRIIIaV [2] | Fold FcγRIIaH [3] | Fold FcγRIIb [4] | Fold FcγRIIaR [5] | Fold FcγRI [6] | fold EC50 relative to WT IgG1 [7] | improvement in affinity relative to WT IgG1 [8] | EC50 (read off the curve) [9] | EC50 (read off the curve) [10]
anti-CD19 WT IgG1 antibody (HuAM4G7 Fv, native human IgG1 Fc) (antibody, Parent of the Fc variants; also called anti-CD19-IgG1; anti-CD19 IgG1 WT; copies: 2 + 2) heavy: not shown light: DIVMTQSPATLSLSPGERATLSCRSSKSLQNVNGNTYLYWFQQKPGQSPQLLIYRMSNLNSGVPDRFSGSGSGTEFTLTISSLEPEDFAVYYCMQHLEYPITFGAGTKLEIKRTVAAPSVFIFPPSDEQLKSGTASVVCLLNNFYPREAKVQWKVDNALQSGNSQESVTEQDSKDSTYSLSSTLTLSKADYEKHKVYACEVTHQGLSSPVTKSFNRGEC | ~1500 nM | 1 fold | 1 fold | 1 fold | 1 fold | 1 fold |  |  |  | 
anti-CD19 antibody S267E/L328F (HuAM4G7 Fv, human IgG1 Fc with S267E/L328F) (antibody, They are treated here as one molecule; also called anti-CD19-S267E/L328F; a-CD19 S267E/L328F; copies: 2 + 2) heavy: not shown light: DIVMTQSPATLSLSPGERATLSCRSSKSLQNVNGNTYLYWFQQKPGQSPQLLIYRMSNLNSGVPDRFSGSGSGTEFTLTISSLEPEDFAVYYCMQHLEYPITFGAGTKLEIKRTVAAPSVFIFPPSDEQLKSGTASVVCLLNNFYPREAKVQWKVDNALQSGNSQESVTEQDSKDSTYSLSSTLTLSKADYEKHKVYACEVTHQGLSSPVTKSFNRGEC |  | 0.038 fold |  | 242 fold | 275 fold | 1.5 fold | ~320 fold | > 2 orders of magnitude |  | 
anti-CD19 antibody HuAM4G7 IgG1 Fc variant S267E (antibody, Positions are EU numbers, not positions on the UniProt entry; copies: 2 + 2) heavy: not shown light: DIVMTQSPATLSLSPGERATLSCRSSKSLQNVNGNTYLYWFQQKPGQSPQLLIYRMSNLNSGVPDRFSGSGSGTEFTLTISSLEPEDFAVYYCMQHLEYPITFGAGTKLEIKRTVAAPSVFIFPPSDEQLKSGTASVVCLLNNFYPREAKVQWKVDNALQSGNSQESVTEQDSKDSTYSLSSTLTLSKADYEKHKVYACEVTHQGLSSPVTKSFNRGEC |  | 0.381 fold |  | 20.4 fold | 29.5 fold | 2.81 fold |  |  | ~0.02 µg/mL | ~0.03 µg/mL
